assay: soluble on expression in E. coli; label from the status in PepcDB or PDB records

Sequence	soluble on expression in E. coli
MSLAQIDFRKKINWHRRYRSPQGVKTEHEILRIFESDRGRIINSPAIRRLQQKTQVFPLERNAAVRTRLTHSMEVQQVGRYIAKEILSRLKELKLLEAYGLDELTGPFESIVEMSCLMHDIGNPPFGHFGEAAINDWFRQRLHPEDAESQPLTDDRCSVAALRLRDGEEPLNELRRKIRQDLCHFEGNAQGIRLVHTLMRMNLTWAQVGGILKYTRPAWWRGETPETHHYLMKKPGYYLSEEAYIARLRKELNLALYSRFPLTWIMEAADDISYCVADLEDAVEKRIFTVEQLYHHLHEAWGQHEKGSLFSLVVENAWEKSRSNSLSRSTEDQFFMYLRVNTLNKLVPYAAQRFIDNLPAIFAGTFNHALLEDASECSDLLKLYKNVAVKHVFSHPDVERLELQGYRVISGLLEIYRPLLSLSLSDFTELVEKERVKRFPIESRLFHKLSTRHRLAYVEAVSKLPSDSPEFPLWEYYYRCRLLQDYISGMTDLYAWDEYRRLMAVEQEGHHHHHH	soluble
MSLAQINVAILGAGRIAQSMAETLVKMAADDRYRDLVAPYAVAARDGERAAAFAAKYGFPVSYGSYEELVADPNVNLVYIATPHNFHAEQAILCMRAGKGVLVEKAFGANTQQAREILDVSDETGMLCTEAIWTRYMPSRGMIDDIIASGVIGEVQAIDANLCYPTTAKARITDPALAGGALLDVGVYPINFIDMIMHNAPIARVESSMQPYETGVDAHNSMTFYYQNGVMATAQSSILCHSDRMGAVWGTEGYLTCQNINNVEAIDMFDGSHAVTAHYDVPEQLTGYEYEVASTAQAMLDGRTECDEMPHSDTLRIMECMDSLRADWGLKYPFEAEGHHHHHH	soluble
MSLAQIVNTERHSRLLPAPSSFEEGVVKFGDKEINIGGPLPTLAKDEKLVRVTHSLCPACYRLLPATIFEKEGKLFIRKICPEHGEFEDLYYADSSLYYKFDYWEYEGKGPKVPYVDLKSPCPYNCGLCPMHHQHSALVNLVITNRCDLSCWYCFFYAEKAGYVYEPTLEQIKFMVDQLKKQDITLVIQVTGGEPTLREDIIEIIKMLRENGVKHIQLNSWGGTFAKLYLEDPDKAIKYARALREAGVNTVYMSFDGTTRKTNPKNHWEIPYTLEVFRRAGMTSVVLVPTVIKTVNDNDLGNIVKFAAYNMDVVRSVNFQPVSLTGMMKRNMRAKFRITIPEVIKNIEEQTDGEITKDSWYPIGTSVVFSRLVEALTGKEQFEMANHPSCGAGTYVYVEWRNHEPHFIPISKFIDLEGLLEYLKEKEEELREGANKVWVASKVLYSIRKFIDKEQGPKDFDVYKMLYNIIIHHNYEALGEWHYRTLFLGSMHFMDLYNYDVQRVMRCDIHYVVPDGRVIPFCTYNVLNDLYRDKVLREYQIPLDKWTKEHGENSLGDAIKYKRIASTLENSEIYKNTYKSFQQMEGHHHHHH	not soluble
MSLAQIVTSTKSCTVNPLRMSQPLGAALAFMGLRNCMPLLHGSQGCTSFGLVLFVRHFRESIPLQTTAMSEVATVLGGFENVEQAIVNIVGRTKPDVIGICTTGVTEIKGDDLDGYIKMVRANHPELANVALVPVSTPDFKGAFEDGFAATVTRIVETLVETPAEGAAPDADRINVLAGSHLTPGDIDELRDIIEAFGLVPTFLPDISGSLDGHVPDDFTPTTHGGVSVAEVVAMGGAGHTLAFGEHMRKAAAALEAKAGVPFTLLSRVTGLAAADELMATLAKISGRPVPPKYRRQRSQLVDAMLDGHFYFGGKSVAIGAEPDMLLNIGGWLADMGCTVSAAVTTTTSPSLAQVPSDEVLIGDLEDLERRAEDCDLLVTHSHGRQAAERLSVPLFRMGLPMFDRLGAVHQVAVGYRGTRDLIFAIGNLFIANIKEPDVNSWRSASACPDQTDAEGHHHHHH	soluble
MSLAQTSDWDSVVAQAKKEGSVTFNVWYLQPQWRSFVKDFEQKYDIKVRIPEGSIDGNMNKLLAETRREQGKIDVIALSIAQLPITMGAKSLAKVDDLPGYQDAYHQLQNVDTQGYAVAFWGNQTGFAYDPQQMGDRPLPQTMEELQRFIDANPKRFGYNDPNNGGAGEAFIQRIVTTLSGDFSSESDTVDPTVIKDWQKGWQWFASNNNNITRTASGADSLTRLNDGELMLTPAWEDHLSGLQKTGAITSRLKFYVPEFGMPGGGNIASIAANSPHPAASRVFLNWLIQADTQKALNEAFGSTPMNKQLNADVKQPDTPVQFYGKAYSMQMKKEFARQVMTREGHHHHHH	soluble
MSLARMSRRSRGAAGAQSVVKPETPMAQVLHQFNYCPCQYLEQNWIVPKQPWLLNLDGWRDNPNFNLWCLEEWALAPVPETAFNKPHHSLALLPPDALSTLMLTIGGALHSFAMRQVVLKKPKQCLNNVFGLDIARFLIQQGPMLLSQWPKGWQKALPDVMKEDEVERHMLKQGYAWMKFILASSSHDILLRWQFKLDQSLSQVKENTSWLVEEQRDLAYRLTKKIAKQVIPQWFHLLKEGHHHHHH	not soluble
MSLARNVPEFGMESYRIEVGRMHGVKPANIVGAIANEAGLESRYIGRIDIRDDHSVLDLPAEMPHEILQHLKKVWVSGQQLQMRRIDTTETEGHHHHHH	soluble
MSLARQNYHSEVEAAVNKQINIELYASYVYLSMSFYFDRDDVALPNIAKFFKEQSDEEREHATELMRVQNLRGGRVVLQDIQKPENDEWGTALKAFEAALALEKFNNESLLKLHSTAGNHNDAHLTDFIEEKYLDEQVKSINEFARMVANLKRVGPGVGEYVFDKEHFSD	soluble
MSLASATDSRYGQKESSDQNFDYMFKILIIGNSSVGKTSFLFRYADDSFTPAFVSTVGIDFKVKTIYRNDKRIKLQIWDTAGQERYRTITTAYYRGAMGFILMYDITNEESFNAVQDWSTQIKTYSWDNAQVLLVGNKCDMEDERVVSSERGRQLADHLGFEFFEASAKDNINVKQTFERLVDVICEKMSESLDTADPAVTGAKQGPQLSDQQVPPHQDCACEGHHHHHH	soluble
MSLASDPFEAPIPGLHACIDPIAVAHNLEVLRQRLGVGVDGPRIWATVKADAYGHGLHNVLPGLRAADGIAVRHLHEAHQCRRVGWSGPIMVYAGLTHEREAALLTLQQLHLVITDMTQLEWLPGKPLYSCAPWIWLRYIGATRLGGLDASEYRRAYARCRELQQHGALRGVGHLNHYANAASVGDLEREHADFEACIRGLPGPVSTCNSAAACVLPTMAARTDWVRPGLALYGVSPIPGREGHHHHHH	not soluble
MSLASLSLAPVNIFKAGADEERAETARLTSFIGAIAIGDLVKSTLGPKGMDKILLSSGRDASLMVTNDGATILKNIGVDNPAAKVLVDMSRVQDDEVGDGTTSVTVLAAELLREAESLIAKKIHPQTIIAGWREATKAAREALLSSAVDHGSDEVKFRQDLMNIAGTTLSSKLLTHHKDHFTKLAVEAVLRLKGSGNLEAIHIIKKLGGSLADSYLDEGFLLDKKIGVNQPKRIENAKILIANTGMDTDKIKIFGSRVRVDSTAKVAEIEHAEKEKMKEKVERILKHGINCFINRQLIYNYPEQLFGAAGVMAIEHADFAGVERLALVTGGEIASTFDHPELVKLGSCKLIEEVMIGEDKLIHFSGVALGEACTIVLRGATQQILDEAERSLHDALCVLAQTVKDSRTVYGGGCSEMLMAHAVTQLANRTPGKEAVAMESYAKALRMLPTIIADNAGYDSADLVAQLRAAHSEGNTTAGLDMREGTIGDMAILGITESFQVKRQVLLSAAEAAEVILRVDNIIKAAPRKRVPDHHEGHHHHHH	not soluble
MSLASRRSKLIAVVVPQINNNMFVDTIQSLSDELARRGYHILLCVAGYTEQTEAELVATLLSRRPDGVVLTGIHHTIELKKVILNAAIPVVEIWDLTPTPLDMLVGFSHEKVGQATGEYLLSKGYRRPGLLWTADRRAAQRKQGLCSVLQRHAIHAVPQVDVPLPASLSLGRSGLSQLFDEGTFDVIVCSSDTLAQGAMMEAESRGLRIPHDLAVIGFGDLDFAASNRPSITTVSVDRRAIGQRAATLLADRIEQKPCAEAIVDIGFHLIGRESAEGHHHHHH	not soluble
